Data as given in publication PMC6565627, “Therapeutic effects of a novel BAFF blocker on arthritis” (Signal Transduction and Targeted Therapy, 2019).
Read-outs that look alike come from different tables or passages of the source. Blank lines part the entries; values can stand above or below the molecule they belong to.

Legend:
[1] = molecular target: T1, human B-cell activating factor (BAFF) (human, UniProt Q9Y275 134-285)
[2] = molecular target: T1, human B-cell activating factor (BAFF); experiment: ELISA; equilibrium binding in solution: human BAFF at 25 pM mixed with antagonist (0.04 nM to 655.36 nM) overnight at room temperature; unbound BAFF detected by ELISA
[3] = molecular target: T1, human B-cell activating factor (BAFF); experiment: cell-based or functional assay

IC50 of inhibition of Raji cell proliferation induced by BAFF (1 μg/ml) and anti-IgM, CCK-8, 72 h [1]: 165 nM
Molecule: BAFF-Trap variant B102: CRD of Br3, CRD2 of TACI and Fc domain of human IgG1 (Fc fusion)

Kd [2]: 3.62 nM
IC50 of inhibition of Raji cell proliferation induced by BAFF (1 μg/ml) and anti-IgM, CCK-8, 72 h; blocks BAFF from its receptors TACI and Br3 on Raji cells [1]: 50.6 nM
Molecule: BAFF-Trap (variant B101): CRD2 of TACI, CRD of Br3 and Fc domain of human IgG1 (Fc fusion)

IC50 of inhibition of Raji cell proliferation induced by BAFF (1 μg/ml) and anti-IgM, CCK-8, 72 h [3]: 69.5 nM
B1: TACI-Fc (Fc fusion, UniProt O14836 1-165, looked up)
chain: MSGLGRSRRGGRSRVDQEERFPQGLWTGVAMRSCPEEQYWDPLLGTCMSCKTICNHQSQRTCAAFCRSLSCRKEQGKFYDHLLRDCISCASICGQHPKQCAYFCENKLRSPVNLPPELRRQRSGEVENNSDNSGRYQGLEHRGSEASPALPGLKLSADQVALVYS
